According to patent publication US20220389118A1 (Chugai, published 2022):

Tests used:
Test in all cases: SPR (Biacore), binding amount
[1] = target: T1, human FcγRIIa type H extracellular domain with C-terminal His tag (human, UniProt P12318 34-217)
T1 construct: extracellular domain; also called FcγRIIaH; FcgRIIaH
T1 sequence (looked up): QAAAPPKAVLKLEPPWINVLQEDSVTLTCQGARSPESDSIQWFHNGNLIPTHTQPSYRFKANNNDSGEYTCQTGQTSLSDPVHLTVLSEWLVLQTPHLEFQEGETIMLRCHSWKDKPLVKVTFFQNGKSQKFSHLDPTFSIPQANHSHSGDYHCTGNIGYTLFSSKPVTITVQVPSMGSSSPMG

[2] = target: T2, human FcγRIIa type R extracellular domain with C-terminal His tag (human, UniProt P12318 34-217)
T2 construct: extracellular domain; also called FcγRIIaR; FcgRIIaR
T2 sequence (looked up): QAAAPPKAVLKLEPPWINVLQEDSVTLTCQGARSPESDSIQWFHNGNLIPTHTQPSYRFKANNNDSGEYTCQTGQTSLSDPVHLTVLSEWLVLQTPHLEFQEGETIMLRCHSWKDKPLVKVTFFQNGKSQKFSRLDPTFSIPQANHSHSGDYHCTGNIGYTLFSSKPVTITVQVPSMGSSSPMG

[3] = target: T3, human FcγRIa extracellular domain with C-terminal His tag (human, UniProt P12314 16-292)
T3 construct: extracellular domain; also called FcgRIa

[4] = target: T4, human FcγRIIIa type V extracellular domain with C-terminal His tag (human, UniProt P08637 17-208)
T4 construct: extracellular domain; also called FcγRIIIaV; FcgRIIIaV

[5] = target: T5, human FcγRIIb extracellular domain with C-terminal His tag (human, UniProt P31994 43-217)
T5 construct: extracellular domain; also called FcgRIIb
T5 sequence (looked up): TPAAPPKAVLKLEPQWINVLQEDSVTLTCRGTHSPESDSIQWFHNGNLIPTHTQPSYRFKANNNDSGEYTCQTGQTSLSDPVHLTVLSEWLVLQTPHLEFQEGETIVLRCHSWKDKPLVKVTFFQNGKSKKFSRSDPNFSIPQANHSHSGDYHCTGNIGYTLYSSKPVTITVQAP

T4 sequence (P08637 17-208 F176V): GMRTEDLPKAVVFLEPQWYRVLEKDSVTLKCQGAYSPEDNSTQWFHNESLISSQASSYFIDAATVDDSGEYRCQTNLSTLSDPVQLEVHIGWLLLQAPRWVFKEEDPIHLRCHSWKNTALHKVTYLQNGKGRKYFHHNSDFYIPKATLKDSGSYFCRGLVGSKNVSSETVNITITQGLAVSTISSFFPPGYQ
T3 sequence (P12314 16-292): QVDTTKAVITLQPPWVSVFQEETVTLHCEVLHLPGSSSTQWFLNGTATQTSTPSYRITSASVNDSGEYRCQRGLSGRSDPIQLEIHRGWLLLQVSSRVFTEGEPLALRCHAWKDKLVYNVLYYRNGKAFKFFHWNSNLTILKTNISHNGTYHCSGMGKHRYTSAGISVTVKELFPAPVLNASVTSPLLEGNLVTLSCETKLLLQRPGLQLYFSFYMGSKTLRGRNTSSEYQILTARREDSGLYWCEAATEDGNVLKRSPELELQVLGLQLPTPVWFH

B1: IL6R-BP198/IL6R-L (antibody, human IgG1, kappa)
heavy: QVQLQESGPGLVKPSETLSLTCAVSGHSISHDHAWSWVRQPPGEGLEWIGFISYSGITNYNPSLQGRVTISRDNSKNTLYLQMNSLRAEDTAVYYCARSLARTTAMDYWGEGTLVTVSSASTKGPSVFPLAPSSKSTSGGTAALGCLVKDYFPEPVTVSWNSGALTSGVHTFPAVLQSSGLYSLSSVVTVPSSSLGTQTYICNVNHKPSNTKVDKKVEPKSCDKTHTCPPCPAPDYLGGDSVFLFPPKPKDTLMISRTPEVTCVVVDVSDEDGEVKFNWYVDGVEVHNAKTKPREEQYNSTYRVVSVLTVLHQDWLNGKEYKCKVSNAALPKPIEKTISKAKGQPREPQVYTLPPSRDELTKNQVSLTCLVKGFYPSDIAVEWESNGQPENNYKTTPPVLDSDGSFFLYSKLTVDKSRWQQGNVFSCSVMHEALHNHYTQESLSLSP
light: not shown
notes: EU numbering; alterations on IL6R-B3; copies: 2 + 2
- relative binding activity [1]: 188 % of IL6R-BF648/IL6R-L
- relative binding activity [2]: 449 % of IL6R-BF648/IL6R-L
- relative binding activity [3]: 104 % of IL6R-BF648/IL6R-L
- relative binding activity [4]: 157 % of IL6R-BF648/IL6R-L
- relative binding activity [5]: 164 % of IL6R-BF648/IL6R-L
